Measured values published in patent US20220098304A1 (JIANGSU HENGRUI MEDICINE, published 2022).
Substitutions are numbered along the chain they refer to. In names and notes the source's numbering stands.

B1: H005-1 (positive control anti-PD-1 antibody, see H005-1 antibody in WO2015085847) (antibody, V domains shown)
VH: EVQLVESGGGLVQPGGSLRLSCAASGFTFSSYMMSWVRQAPGKGLEWVATISGGGANTYYPDSVKGRFTISRDNAKNSLYLQMNSLRAEDTAVYYCARQLYYFDYWGQGTTVTVSS
VL: DIQMTQSPSSLSASVGDRVTITCLASQTIGTWLTWYQQKPGKAPKLLIYTATSLADGVPSRFSGSGSGTDFTLTISSLQPEDFATYYCQQVYSIPWTFGGGTKVEIKR
B2: Hu23-11.IgG4AA (antibody, V domains shown)
VH: EVQLVQSGAEVKKPGSSVKVSCKASGGTFSDYEMHWVRQAPGQGLEWMGLIDPETGGTVYNQKFKDRVTITADKSTSTAYMELSSLRSEDTAVYYCARERFSYYGSTSDWYFDVWGQGTTVTVSS
VL: DIVMTQTPLSLPVTPGEPASISCRSSQSLVHSTGNTYLEWYLQKPGQSPQLLIYKVSNRFSGVPDRFSGSGSGTDFTLKISRVEAEDVGVYYCFQGSHVPYTFGGGTKVEIKR
notes: Full-length IgG4-AA, kappa; also called Hu23LCDR1 (N28T)
B3: Hu32a-85.IgG4AA (antibody, V domains shown)
VH: EVQLVQSGAEVKKPGSSVKVSCKASDFTFTDYEIHWVKQAPGHGLEWIGLFDPETGGIVYNQKFKGKATLTADKSTSTAYMEFSSLRSEDTAVYYCTREGYNRDWYFDVWGQGTTVTVSS
VL: B2 VL
notes: Full-length IgG4-AA, kappa
B4: murine antibody M32 (antibody, V domains shown)
VH: QVQLQQSGAELVRPGASVTLSCKASDFTFTDYEIHWVKQTPVHGLEWIGLFDPETGGIVYNQKFKGKAILTADKSSNTAYMEFRSLTSEDSAVYYCTREGYNRDWYFDVWGTGTTVTVSS
VL: DVLMTQTPLSLPVSLGDQASISCRSSQSIVHSNGNTYLEWYLQKPGQSPKLLIYKVSNRFSGVPDRFSGSGSGTDFTLKISRVEAEDLGIYYCFQGSHVPYAFGGGTKLEIK
B5: Hu33-1.IgG4AA (antibody, V domains shown)
VH: EVQLVESGGGLVQPGGSLRLSCAASGFTFSSYAMSWVRQAPGKGLEWVATISGGGVDTYYQDNVQGRFTISRDNAKNSLYLQMNSLRAEDTAVYYCARPYGHGYFDVWGQGTTVTVSS
VL: DIQMTQSPSSLSASVGDRVTITCRASQDINNFLNWYQQKPGKAPKLLIYYTSSLHSGVPSRFSGSGSGTDFTLTISSLQPEDFATYYCQQGNTLPWTFGGGTKVEIKR
notes: Full-length IgG4-AA, kappa
B6: Hu33-7.IgG4AA (antibody, V domains shown)
VH: B5 VH
VL: B5 VL with K42G, P44V, F71Y
notes: Full-length IgG4-AA, kappa
B7: Hu33-9.IgG4AA (antibody)
heavy: not shown
light: DIQMTQSPSSLSASVGDRVTITCRASQDINNFLNWYQQKPGGAVKLLIYYTSSLHSGVPSRFSGSGSGTDYTLTISSLQPEDFATYYCQQGNTLPWTFGGGTKVEIKRTVAAPSVFIFPPSDEQLKSGTASVVCLLNNFYPREAKVQWKVDNALQSGNSQESVTEQDSKDSTYSLSSTLTLSKADYEKHKVYACEVTHQGLSSPVTKSFNRGEC
notes: Full-length IgG4-AA, kappa
B8: Hu33-4.IgG4AA (antibody, V domains shown)
VH: B5 VH
VL: B5 VL with F71Y
notes: Full-length IgG4-AA, kappa
B9: Hu33-8.IgG4AA (antibody)
heavy: not shown
light: B7 light
notes: Full-length IgG4-AA, kappa
B10: murine antibody M33 (antibody, V domains shown)
VH: KVMLVESGGGLVKPGGSLKLSCAASGFTFSSYAMSWVRQTPEKRLEWVATISGGGVDTYYQDNVQGRFTISRDNAKNTLYLQMSSLRSEDTALYYCASPYGHGYFDVWGTGTTVTVSS
VL: DIQMTQTTSSLSASLGDRVTISCRASQDINNFLNWYQQKPDGTVKLLIYYTSSLHSGVPSRFSGSGSGTDYSLTISNLEQEDIATYFCQQGNTLPWTFGGGTKLEIK

The binders below were run against T1, Human PD-1-His protein (Cat. #10377H08H, Sino Biological) (human, UniProt Q15116 25-167) (assay: ELISA, PD-1-His coated, HRP anti-human IgG detection).
T1 construct: Bought protein; also called hPD-1-His; hu PD-1-his; not shown: His tag of the bought protein

| EC50 [µg/mL] | OD value MAX [OD] | Binder |
| --- | --- | --- |
| 0.113 | 1.21 | B1 |
| 0.237 | 1.46 | B2 |
| 0.136 | 1.26 | B3 |

The binders below were run against T1, Human PD-1-His protein (Cat. …) (assay: SPR (Biacore), antibody captured on Protein A chip, PD-1 in flow).
Source text: (§1) IgG was affinity captured by using a Protein A biosensor chip (Cat. #29127556, GE). Human PD-1 antigen (Cat. #10377H08H, Sino Biological) and Cyno PD-1 antigen (purchased from Sino Biological) flowed across the surface of the chip, and the binding and dissociation curves were obtained by real time detection of PD-1 antibody and antigen PD-1 reaction signals by a Biacore T200 instrument. After the dissociation of each experimental cycle was completed, the biosensor chip was washed and regenerated with 10 mM Glycine-HCl pH 1.5 buffer. The experimental buffer system was 1×HBS-EP buffer solution (Cat #BR-1001-88, GE). After the experiment, GE Biacore T200 Evaluation version 3.0 software was used to fit the data with a (1:1) Langmuir model, and the affinity value was obtained.

| Kd [nM] | koff [s⁻¹] | kon [M⁻¹ s⁻¹] | Binder |
| --- | --- | --- | --- |
| 5.3 | 0.000415 | 78300 | B4 |
| 19.3 | 0.00128 | 66100 | B5 |
| 33.8 | 0.0026 | 76900 | B6 |
| 1.09 | 0.000153 | 140000 | B7 |
| 31.4 | 0.00255 | 81100 | B8 |
| 1.06 | 0.000162 | 153000 | B9 |
| 0.737 | 0.000227 | 308000 | B10 |
| 2.71 | 0.000114 | 42200 | B2 |
| 3.18 | 0.000315 | 99000 | B3 |

What follows are binders tested against T2, Human PD-1-IgG1Fc fusion protein (human) (assay: competition ELISA, PD-1-Fc coated, competitor biotin-labeled PD-L1).
T2 construct: also called PD-1-Fc; Hu PD-1-Fc
Method: (§2) CB buffer pH 9.6 (1.59 g Na₂CO₃ and 2.93 g NaHCO₃ dissolved in 1 L distilled water) was used to dilute PD-1-Fc to 1 μg/ml, which was added to the 96-well plates at a volume of 100 μl/well and allowed to stand at 4° C. for 16 h-20 h. PBS buffer was aspirated from the 96-well plates, and the plates were washed with PBST (pH 7.4 PBS containing 0.05% tween20) buffer once. 120 μl/well PB ST/1% milk was added and incubated at room temperature for 1 h for blocking. The blocking solution was removed and the plates were washed with PBST buffer once. 90 μl anti-PD-1 antibody to be tested diluted to appropriate concentration with the sample diluent (pH 7.4 PBS containing 5% BSA, 0.05% Tween20) was added and pre-incubated at 4° C. for 1 h. […] The reaction system was removed and the plates were washed with PBST 6 times. 100 μl/well Streptavidin-Peroxidase Polymer 1:400 diluted with PBST buffer was added and incubated with shaking at room temperature for 50 min. The plates were washed with PBST 6 times. 100 μl/well TMB was added and incubated at room temperature for 5-10 min. 100 μl/well 1 M H₂SO₄ was added to stop the reaction.

| IC50 [µg/mL] | Binder |
| --- | --- |
| 0.11 | B1 |
| 0.0924 | B2 |
| 0.0786 | B3 |

The binders below were run against T2, Human PD-1-IgG1Fc fusion protein (assay: competition ELISA, PD-1-Fc coated, competitor biotin-labeled PD-L2).
Method: as §2

| IC50 [µg/mL] | Binder |
| --- | --- |
| 0.225 | B1 |
| 0.245 | B2 |
| 0.206 | B3 |

The binders below were run against T1, Human PD-1-His protein (Cat. …) (assay: SPR (Biacore T200), antibody captured on Protein A chip, antigen in flow, 1:1 Langmuir).
Source text: as §1

| Kd [nM] | koff [s⁻¹] | kon [M⁻¹ s⁻¹] | Binder |
| --- | --- | --- | --- |
| 1.86 | 0.000113 | 60600 | B2 |
| 3.25 | 0.000278 | 85600 | B3 |

What follows are binders tested against T3, Cyno PD-1 antigen (purchased from Sino Biological) (cynomolgus monkey (Cyno; simian), UniProt B0LAJ3 25-170) in the same assay as above.
T3 construct: Bought protein, construct not described; also called simian PD-1; not shown: Tag or carrier of the Sino Biological product (probably a His tag)
Source text: as §1

| Kd [nM] | koff [s⁻¹] | kon [M⁻¹ s⁻¹] | Binder |
| --- | --- | --- | --- |
| 2.62 | 0.000126 | 47900 | B2 |
| 4.11 | 0.000475 | 116000 | B3 |
